This assay deals with cynomolgus PD-1 expressed on CHO cells (cynomolgus monkey). Nature of the assay: cPD-1 binding titration (format not named; taken as cell binding).

Here are results for two molecules from patent US20200190192A1.

For orientation: Kd means a measure of binding affinity in units of concentration.

B1: 1353-G10 H1 HC IgG (antibody, V domains shown)
VH: EVQLVQSGAEVKKPGASVKVSCKASGYTFDSYGISWVRQAPGQGLEWMGWISAYNGNTNYAQKLQGRVTMTTDTSTNTAYMELRSLRSDDTAVYYCARDVDYGTGSGYWGQGTLVTVSS
VL: SYELTQPPSVSVSPGQTARITCSGDALPKQYAYWYQQKPGQAPVMVIYKDTERPSGIPERFSGSSSGTKVTLTISGVQAEDEADYYCQSADNSITYRVFGGGTKVTVL
In turn, B1 returned a Bmax of 2960 and a Kd of 0.3 nM.

B2: 1353-G10 H1/vk1-39 IgG (antibody, V domains shown)
VH: B1 VH
VL: DIQLTQSPSSLSASVGDRVTITCSGDALPKQYAYWYQQKPGKAPKLLIYKDTERPSGVPSRFSGSSSGTKVTLTISSLQPEDFATYYCQSADNSITYRVFGGGTKVEIK
As to B2, the Bmax worked out at 2800 and the Kd was found to be 2.3 nM.
